In patent US20120253017A1:

Columns and labels:
[1] = molecular target: mouse c-kit (recombinant, on BIAcore chip) (mouse) (UniProt P05532); assay: BIAcore 2000, 1 uM dAb
[2] = molecular target: mouse c-kit (recombinant, on BIAcore chip) (mouse) (UniProt P05532); assay: BIAcore
[3] = molecular target: mouse c-kit (recombinant, on BIAcore chip) (mouse) (UniProt P05532); assay: BIAcore, dAb at 1000 and 500 nM
[4] = molecular target: mouse c-kit (recombinant, on BIAcore chip) (mouse) (UniProt P05532); assay: BIAcore, c-kit on SA chip
[5] = molecular target: mouse c-kit (recombinant, on BIAcore chip) (mouse) (UniProt P05532); assay: BIAcore, approximate kinetic constants
[6] = molecular target: human c-kit (recombinant, on BIAcore chip or beads) (human) (UniProt P10721); assay: BIAcore
Sequence of human c-kit (recombinant, on BIAcore chip or beads) (human) (P10721 26-524): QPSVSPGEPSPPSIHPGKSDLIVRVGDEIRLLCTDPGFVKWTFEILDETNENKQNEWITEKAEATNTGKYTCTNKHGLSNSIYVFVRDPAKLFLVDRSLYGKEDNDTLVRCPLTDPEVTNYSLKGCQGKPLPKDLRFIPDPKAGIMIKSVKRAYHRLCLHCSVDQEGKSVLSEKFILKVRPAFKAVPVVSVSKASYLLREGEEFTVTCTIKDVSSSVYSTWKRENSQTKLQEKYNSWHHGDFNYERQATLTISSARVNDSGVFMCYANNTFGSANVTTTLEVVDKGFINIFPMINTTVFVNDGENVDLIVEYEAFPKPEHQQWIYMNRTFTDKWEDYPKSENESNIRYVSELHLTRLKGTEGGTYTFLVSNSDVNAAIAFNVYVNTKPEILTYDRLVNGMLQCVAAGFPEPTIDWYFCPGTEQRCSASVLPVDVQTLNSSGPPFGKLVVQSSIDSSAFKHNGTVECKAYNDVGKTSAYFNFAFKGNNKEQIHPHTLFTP

[7] = molecular target: T1, Mouse cKIT ECD-Fc (mouse; human) (UniProt P05532); assay: BIAcore
T1 sequence (looked up): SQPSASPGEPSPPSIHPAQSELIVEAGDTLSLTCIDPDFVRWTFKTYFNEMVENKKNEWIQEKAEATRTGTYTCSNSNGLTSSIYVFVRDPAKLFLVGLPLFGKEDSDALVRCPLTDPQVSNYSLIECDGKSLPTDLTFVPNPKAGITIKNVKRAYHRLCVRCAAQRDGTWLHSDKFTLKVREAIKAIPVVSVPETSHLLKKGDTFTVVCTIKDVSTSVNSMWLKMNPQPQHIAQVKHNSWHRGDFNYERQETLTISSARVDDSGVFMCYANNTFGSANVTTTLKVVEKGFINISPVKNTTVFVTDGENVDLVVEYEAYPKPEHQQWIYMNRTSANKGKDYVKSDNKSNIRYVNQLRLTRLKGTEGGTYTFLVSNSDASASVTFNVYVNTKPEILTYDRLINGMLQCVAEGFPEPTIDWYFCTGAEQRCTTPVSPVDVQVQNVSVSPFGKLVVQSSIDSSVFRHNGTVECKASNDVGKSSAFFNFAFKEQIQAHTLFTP

B1: DOM28m-7 (protein)
VH: EVQLLESGGGLVQPGGSLRLSCAASGFTFSNYAMGWVRQAPGKGLEWVSSISSSGFATYYADSVKGRFTISRDNSKNTLYLQMNSLRAEDTAVYYCAKSESRTFKAFDYWGQGTLVTVSS
Binder B1 has a Kd [1] of 4000 nM and a Kd [2] of 3000 nM.

B2: DOM28m-73 (protein)
chain: EVQLLESGGGLVQPGGSLRLSCAASGFTFKHYSMNWVRQAPGKGLEWVSRISPSGVSTYYADSVKGRFTISRDNSKNTLYLQMNSLRAEDTAVYYCAKIMNSHKADEFDYWGQGTLVTVSS
B2 showed a Kd [1] of 9000 nM and a Kd [2] of 9000 nM.

B3: DOM28h-94 (protein)
VH: EVQLLESGGGLVQPGGSLRLSCAASGFTFFPYAMGWVRQAPGKGLEWVSFISGRGDTTYYADSVKGRFTISRDNSKNTLYLQMNSLRAEDTAVYYCAKTATSDLWNFDYWGQGTLVTVSS
For B3, the Kd [3] was 1500 nM and the Kd [4] was 1500 nM.

B4: DOM28h-94-10 (protein)
VH: EVQLLESGGGLVQPGGSLRLSCAASGFTVFPYAMGWVRQAPGKGLEWVSFISGRGDTTYYADSVKGRFTISRDNSKNTLYLQMNSLRAEDTAVYYCAKTATSDLWNFDYRGQGTLVTVSS
In the case of B4, the Kd [5] is reported as 112 nM.

B5: DOM28h-94-12 (protein)
VH: EVQPLESGGGLVQPGGSLRLSCAVSGFTVFPYAMGWVRQAPGKGLEWVSFISGRGDTTYYADSVKGRFTISRDNSKNTLYLQMNSLRAEDTAVYYCAKTATSDLWNFDYRGQGTLVTVSS
B5 gave a Kd [5] of 11 nM.

B6: DOM28m-23 (protein)
VH: EVRLLESGGGLVQPGGSLRLSCAASGFTFRDYVMVWVRQAPGKGLEWVSAIAPTGGYTYYADSVKGRFTISRDNSKNTLYLQMNSLRAEDTAVYYCAKSLRTWLSEDLPFDYWGQGTLVTVSS
B6 was tested, and the Kd [4] was 2800 nM, the Kd [1] was 22000 nM and the Kd [2] was 22000 nM.

B7: DMS5052 (chimeric MLC mAb-cKIT dAb, DOM28m-007) (bispecific antibody, not shown: a dimerising Fc or GST)
heavy (part 1 of 2): QVQLQQSGAELASPGASVKLSCKASGYTFTTYWIHWVKQRPGQGLEWIGAIYPGDGDTRYTQNFKDKATLTADSSSSTAYMQLSSLASEDSAVFYCAREGTPPFTTATFAMAYWGQGTSVTVSS
heavy (part 2 of 2): STGEVQLLESGGGLVQPGGSLRLSCAASGFTFSNYAMGWVRQAPGKGLEWVSSISSSGFATYYADSVKGRFTISRDNSKNTLYLQMNSLRAEDTAVYYCAKSESRTFKAFDYWGQGTLVTVSS
light: DIVMSQSPSSLAVSAGDKVTMSCKSSQSLLYSRTRKNYLAWYQQKPGQSPKLLIYWASTRQSGVPDRFTGSGSGTDFTLTISSVQAEDLAVYYCKQSYNLFTFGSGTKLEIKR
B7 gave a Kd [2] of 80 nM, a Kd [6] of 27 nM and a Kd [7] of 36 nM.

B8: DMS5060 (chimeric MLC mAb-cKIT dAb, DOM28h-094) (bispecific antibody, not shown: a dimerising Fc or GST)
heavy (part 1 of 2): QVQLQQSGAELASPGASVKLSCKASGYTFTTYWIHWVKQRPGQGLEWIGAIYPGDGDTRYTQNFKDKATLTADSSSSTAYMQLSSLASEDSAVFYCAREGTPPFTTATFAMAYWGQGTSVTVSS
heavy (part 2 of 2): STGEVQLLESGGGLVQPGGSLRLSCAASGFTFFPYAMGWVRQAPGKGLEWVSFISGRGDTTYYADSVKGRFTISRDNSKNTLYLQMNSLRAEDTAVYYCAKTATSDLWNFDYWGQGTLVTVSS
light: DIVMSQSPSSLAVSAGDKVTMSCKSSQSLLYSRTRKNYLAWYQQKPGQSPKLLIYWASTRQSGVPDRFTGSGSGTDFTLTISSVQAEDLAVYYCKQSYNLFTFGSGTKLEIKR
Binder B8 has a Kd [2] of 14 nM, a Kd [6] of 36 nM and a Kd [7] of 13 nM.
